The target in the experiment is human FLT3 on transfected CHO cells (human) (UniProt P36888). Put plainly: FACS, scFv on CHO-human FLT3 cells pre-incubated with FLT3 ligand (competitor). In general terms: A flow cytometer gives signals particle by particle.

Where a chain is given by its changes, count along the chain named.

B1: FL-48 (scFv)
scFv: QVTLKESGPMLVKPTETLTLTCTFSGFSLRNARMGVSWIRQPPGKCLEWLAHIFWNDEKSYSTSLKSRLTISKDTSKSQVVLTMTNMDPVDTATYYCARIPYYGSGSYNYGMDVWGQGTTVTVSSGGGGSGGGGSGGGGSDIQMTQSPSSLSASVGDRVTITCRASQGIRNDLGWYQQKPGKAPKRLIYAASSLQSGVPSRFSGSGSGTEFTLTISSLQPEDFATYYCLQHNTYPLTFGCGTKVDIK
As for B1, the median [+ligand]/median [w/o ligand]*100 was > 75%.

B2: FL-57 (scFv)
scFv: QVTLKESGPTLVKPTETLTLTCTFSGFSLRYARMGVSWIRQPPGKALEWLAHISSNDEKSFSTALESRLTISTDTSKSQMVLTMTNVDPVDTATYYCARMPGDSNTWRGFFDYWGQGTLVTVSSGGGGSGGGGSGGGGSEIVMTQSPGTLSLSPGERATLSCRTSQTVTNSYIAWYQQRPGQAPRLLIYGTSTRATGIPDRFSGSGSGTDFTLTISRLEPEDFAVYYCQKYGSSPLTFGGGTKLEIK
Regarding B2, the median [+ligand]/median [w/o ligand]*100 was > 75%.

B3: FL-53 (scFv)
scFv: QVQLVESGGGVVQPGRSLRLSCAASGFTFSSYGMHWVRQAPGKCLEWVAVISYDGSNEFYADSVKGRFTISRDNSKNTLYLQMNSLRAEDTAVYYCARGGEITMVRGVIGYYYYGMDVWGQGTTVTVSSGGGGSGGGGSGGGGSDIQMTQSPSSLSASVGDRVTITCRTSQSISSYLNWYQQKPGKAPKLLIYAASSLQSGVPSRFSGSGSGTEFTLTISSLQPEDFATYYCLQHNSYPLTFGCGTKVDIK
Consider B3, for which the median [+ligand]/median [w/o ligand]*100 is > 75%.

B4: FL-64 (scFv)
scFv: B3 scFv with C44G, D161N, T169A, C244G
Regarding B4, the median [+ligand]/median [w/o ligand]*100 is > 75%.

B5: FL-61 (scFv)
scFv: B3 scFv with C44G, T169A, C244G, D249E
For B5, the median [+ligand]/median [w/o ligand]*100 is > 75%.

B6: FL-63 (scFv)
scFv: B3 scFv with C44G, C244G
In the case of B6, the median [+ligand]/median [w/o ligand]*100 was > 75%.

B7: FL-60 (scFv)
scFv: QVTLKESGPALVKPTQTLTLTCTFSGFSLSNARMGVSWIRQPPGKALEWLAHIFSNDEKSYSTSLKSRLTISKDTSKRQVVLTMTNMDPVDTATYYCARMVGYGSGWYAYFDYWGQGTLVTVSSGGGGSGGGGSGGGGSDIVMTQTPLSLSVTPGQPASISCRSSQSLLHSNGYNYLYWYLQKPGQPPQLLIYEVSNRFSGVPDRFSGSGSGTDFTLKISRVEAEDVGVYYCMQALQTPLTFGGGTKVEIK
Consider B7, for which the median [+ligand]/median [w/o ligand]*100 is > 75%.

B8: FL-59 (scFv)
scFv: QVTLKESGPMLVKPTETLTLTCTVSGFSLRNVRMGVSWIRQPPGKALEWLAHIFSNDEKSYSTSLKSRLTISKDTSKSQVVLTLTNMDPVDTATYFCARMPEYSSGWSGAFDIWGQGTMVTVSSGGGGSGGGGSGGGGSDIQMTQSPSSLSASVGDRVTITCRASQDIRDDLGWYQQKPGNAPKRLIYGASTLQSGVPSRFSGSGSGTEFTLTISSLQPEDFATYYCLQHNSYPLTFGGGTRLEIK
For B8, the median [+ligand]/median [w/o ligand]*100 was > 75%.

B9: FL-51 (scFv)
scFv: QVTLKESGPTLVKPTETLTLTCTVSGFSLRNVRMGVSWIRQPPGKCLEWLAHISSNDEKSYSTSLRSRLTISTDTSKSQVVLTMTNMDPVDTATYYCARMPGDSNTWRGFFDYWGQGTLVTVSSGGGGSGGGGSGGGGSEIVMTQSPATLSVSPGERATLSCRTSQSVNNNLAWYQQKPGQAPRLLIYGASTRATGIPARFSGSGSGTEFTLTISSLQPEDFATYYCLQHNSYPLTFGCGTKVEIK
In the case of B9, the median [+ligand]/median [w/o ligand]*100 was > 75%.

B10: FL-58 (scFv)
scFv: B9 scFv with C46A, C239G
For the molecule B10, the median [+ligand]/median [w/o ligand]*100 is > 75%.

B11: FL-54 (scFv)
scFv: QVQLVESGGGVVQPGRSLRLSCAASGFTFSSYGMHWVRQAPGKCLEWVAVISYDGSNEFYADSVKGRFTISRDNSKNTLYLQMNSLRAEDTAVYYCARGGEITMVRGVIGYYYYGMDVWGQGTTVTVSSGGGGSGGGGSGGGGSEIVMTQSPATLSVSPGERATLSCRASQGVRNNLVWYQQKPGQAPRLLIYGASTRATGIPARFSGSGSGTEFTLTISSLQSEDFATYYCLQHNSYPLTFGCGTKVEIK
Regarding B11, the median [+ligand]/median [w/o ligand]*100 was > 75%.

B12: FL-62 (scFv)
scFv: B11 scFv with C44G, C244G
With B12, the median [+ligand]/median [w/o ligand]*100 is > 75%.

B13: FL-43 (scFv)
scFv: QVTLKESGPVLVKPTETLTLTCTVSGFSFRNARMGVSWIRQPPGKCLEWLAHIFSNDEKSYSTSLKSRLTISKDTSKSQVVLTLTNMDPVDTATYFCARMPEYSSGWSGAFDIWGQGTMVTVSSGGGGSGGGGSGGGGSDIQMTQSPSSLSASVGDRVTITCRASQGIRNDLVWYQQKPGKAPKRLIYGTSTLQSGVPSRFSGSGSGTEFTLTISSLQPEDFATYYCLQHNSYPLTFGCGTKVEIK
For B13, the median [+ligand]/median [w/o ligand]*100 is > 75%.

B14: FL-44 (scFv)
scFv: B13 scFv with A164T, G189A, T190A, Y226F, N231Y
As to B14, the median [+ligand]/median [w/o ligand]*100 was > 75%.

B15: FL-52 (scFv)
scFv: B13 scFv with V10T, V24F, F29L, N31Y, G167D, V173A, G189A, T190A, T192S, V243L
As for B15, the median [+ligand]/median [w/o ligand]*100 is > 75%.

B16: FL-49 (scFv)
scFv: QVTLKESGPTLVKPTETLTLTCTVSGFSLNNARMGVSWIRQPPGKCLEWLAHIFSNDEKSYSTSLKNRLTISKDSSKTQVVLTMTNVDPVDTATYYCARIVGYGTGWFGYFDYWGQGTQVTVSSGGGGSGGGGSGGGGSDIQMTQSPSSLSASVGDRVTITCRASQDIRTDLAWYQQKPGKAPKRLIYAASSLQSGVPSRFSGSGSGTEFTLTISSLQPEDFATYYCLQHNRYPLTFGCGTKVDIK
B16: the median [+ligand]/median [w/o ligand]*100 is > 75%.

B17: FL-45 (scFv)
scFv: QVTLKESGPALVKPTQTLTLTCTFSGFSLSNARMGVSWIRQPPGKCLEWLAHIFSNDEKSYRTSLKSRLTISKDTSKSQVVLTMTNMDPVDTATYYCARIVGYGSGWYAYFDYWGQGTLVTVSSGGGGSGGGGSGGGGSDIQMTQSPSSLSASVGDRVTITCRASQGIRNDLGWYQQKPGKAPKRLIYAASSLQSGVPSRFSGSGSGTEFTLTISSLQPEDFATYYCLQHNSYPLTFGCGTKVEIK
For the molecule B17, the median [+ligand]/median [w/o ligand]*100 is > 75%.

B18: FL-47 (scFv)
scFv: B17 scFv with R62S, N86D, V90E, S105T, A109G, Y110F, T118I, A164T
With B18, the median [+ligand]/median [w/o ligand]*100 is > 75%.

B19: FL-46 (scFv)
scFv: QVTLKESGPVLVKPTQTLTLTCTFSGFSLSNARMGVSWIRQPPGKCLEWLALIYWNDDKRYSPSLKSRLTITKDTSKNQVVLTMTNMDPVDTATYYCARMVGYGSGWYAYFDYWGQGTLVTVSSGGGGSGGGGSGGGGSDIQMTQSPSSLSASVGDRVTITCRASQGIRNDLGWYQQKPGKAPKRLIYAASSLQSGVPSRFSGSGSGTEFTLTISSLQPEDFATYYCLQHNSYPLTFGCGTKVEIK
As to B19, the median [+ligand]/median [w/o ligand]*100 was > 75%.

B20: FL-56 (scFv)
scFv: QVTLKESGPVLVKPTETLTLTCTVSGFSLRNVRMGVSWIRQPPGKALEWLAHIFSNDEKLYTTSLKSRLTISKDTSKSQVVLTMTNMDPEDTATYYCARIVGYGTGWYGYFDYWGQGTQVTVSSGGGGSGGGGSGGGGSDIQMTQSPSSLSASIGDRVTITCRASQDIRDDLGWYQREPGKAPKRLIYATSIRQSGVPSRFSGSGSGTEFTLTISGLQPEDFATYFCLQHHSFPLTFGGGTKVDIK
On to B20, for which the median [+ligand]/median [w/o ligand]*100 is > 75%.

B21: FL-50 (scFv)
scFv: QVTLKESGPTLVKPTETLTLTCTVSGFSLSNARMGVSWIRQPPGKCLEWLAHIFSNDEKSYSTSLKSRLTISKDTSKSQVVLTMTNMDPVDTATYYCARIPGYGGNFYYHYYGMDVWGQGTTVTVSSGGGGSGGGGSGGGGSDIQMTQSPSSLSASVGDRVTITCRASQGIRNDLAWYQQKPGKAPKRLIYAASTVQSGVPSRFSGSGSGTEFALTISSLQPEDFATYYCLQHNSFPWTFGCGTKVDIK
In the case of B21, the median [+ligand]/median [w/o ligand]*100 was > 75%.
